Data on seven molecules can be found in PMC5691656 (Viruses, 2017).

For one assay, the target named is Noxa BH3 (Homo sapiens) (UniProt Q13794). The experiment in a line: ITC. Conditions: cited from earlier work.
The target of another assay is CNP058 (Canarypox virus, UniProt Q6VZT9). In words: biochemical. The class given is binding.
The target in assay [1] is T1, Canarypox virus CNP058 lacking the C-terminal transmembrane domain (residues 1–143) (canarypox virus, UniProt Q6VZT9 1-143).
T1 sequence: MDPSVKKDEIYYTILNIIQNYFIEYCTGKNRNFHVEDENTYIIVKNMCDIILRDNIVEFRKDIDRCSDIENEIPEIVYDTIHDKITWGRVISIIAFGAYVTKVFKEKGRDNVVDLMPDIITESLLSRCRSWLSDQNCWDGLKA
The experiment in a line: ITC. Conditions: both partners purified.

No end group written: not given here.

Sequence of Noxa BH3 (Homo sapiens) (Q13794 18-43): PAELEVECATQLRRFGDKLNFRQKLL

In the case of FPV039 (from UniProt Q9J5G4), the dissociation constant (Kd) (usually the constant that tells how readily two partners part at equilibrium) with Noxa BH3 (Homo sapiens) was 28 nM.

The molecule “PEVNEAIVRTIAAQLAEIGDQLDKQIKAKVVNDL [GG_Bid]” displayed a Kd at CNP058 of 50 nM. In the case of VPQDASTKKLSECLKRIGDELDSNMELQ [Homo sapiens Bax BH3 domain peptide (residues 50-77)], the affinity in assay [1], expressed as Kd, was 326 nM. On the same count and under the same terms, for EEQWAREIGAQLRRMADDLNAQYERR [Homo sapiens Puma BH3 domain peptide (residues 130-155)] the value was 2480 nM.

B1: Gallus gallus Noxa BH3 domain peptide (peptide)
peptide: ERDAVAECALELRRIGDKADLQQKVL
notes: Noxa, Gallus gallus, BH3 domain peptide; source: synthetic peptide (Mimotopes)
With B1, the Kd in assay [1] came out at 3280 nM.

Consider EARTEVQIARKLQCIADQFHRLHIQR [Gallus gallus Bmf BH3 domain peptide (residues 135-160)], for which the dissociation constant Kd in assay [1] came out at 294 nM. Still for that read-out and setting: for PEVNEAIVRTIAAQLAEIGDQLDKQIKAKVVNDL [Gallus gallus Bid BH3 domain peptide (residues 77-110)] the value was 50 nM.
